Test [1] has as its target DDB1-AMBRA1^WD40 complex (human) (UniProt Q9C0C7). In words: ITC; peptide (100 μM) titrated into AMBRA1^WD40-DDB1 complex (10 μM); 25°C; 50 mM Hepes pH 7.4, 200 mM NaCl, 2 mM MgCl2, 1 mM TCEP; single-site binding model.
Test [2] has as its target DDB1-AMBRA1 WD40 (Homo sapiens, UniProt Q16531). In words: ITC.
Test [3] deals with T1, TSF–cyclin D1 (full-length) (human, UniProt P24385 1-295, phosphothreonine at 286 (found in the reconstituted complex by Western blotting and MS)).
T1 construct: cyclin D1, human; also called Twin-Strep-FLAG–cyclin D1; source: Expi293F, co-transfected; in lysate (pull-downs) and purified in complexes (MBP or GST beads, TEV digestion, Strep-tactin, Superdex 200); not shown: Twin-Strep-FLAG (TSF), N-terminal, kept
In words: cryo-EM structure; DDB1–AMBRA1^WD40–cyclin D1–CDK4EE complex co-expressed in Expi293F and purified (MBP beads, TEV, Strep-tactin, Superdex 200); 0.3 mg/ml; 3.55 Å. The settings on record: both partners purified.

Where no end group is shown, it is not given here. [ ]: non-standard residue; d: D form. pT = C[C@@H](OP(=O)(O)O)[C@H](N)C(=O)O

T1 sequence (P24385 whole entry): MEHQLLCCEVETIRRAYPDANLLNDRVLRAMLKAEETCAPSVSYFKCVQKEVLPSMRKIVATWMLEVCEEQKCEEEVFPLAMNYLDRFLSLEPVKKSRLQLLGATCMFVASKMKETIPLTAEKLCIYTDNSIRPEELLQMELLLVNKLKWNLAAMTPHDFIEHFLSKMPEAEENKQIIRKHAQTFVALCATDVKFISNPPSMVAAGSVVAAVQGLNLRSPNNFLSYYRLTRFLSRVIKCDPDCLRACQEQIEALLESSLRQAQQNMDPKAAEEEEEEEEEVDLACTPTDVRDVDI

For the molecule “T286-phosphorylated cyclin D1 peptide (residues 284 to 295)”, the dissociation constant Kd in test [1] worked out at 210 nM. Ac-AC[pT]PTDVRDVDI [cyclin D1 284-295] displayed a Kd in test [2] of roughly 200 nM.

B1: AMBRA1^WD40 (residues M1 to N204 directly fused to S853 to G1044), MBP removed (domain or fragment, human, UniProt Q9C0C7 1-204, looked up)
chain: MKVVPEKNAVRILWGRERGARAMGAQRLLQELVEDKTRWMKWEGKRVELPDSPRSTFLLAFSPDRTLLASTHVNHNIYITEVKTGKCVHSLIGHRRTPWCVTFHPTISGLIASGCLDGEVRIWDLHGGSESWFTDSNNAIASLAFHPTAQLLLIATANEIHFWDWSRREPFAVVKTASEMERVRLVRFDPLGHYLLTAIVNPSNSNIANTTYRLQWWDFTKFDLPEISNASVNVLVQNCKIYNDASCDISADGQLLAAFIPSSQRGFPDEGILAVYSLAPHNLGEMLYTKRFGPNAISVSLSPMGRYVMVGLASRRILLHPSTEHMVAQVFRLQQAHGGETSMRRVFNVLYPMPADQRRHVSINSARWLPEPGLGLAYGTNKGDLVICRPEALNSG
notes: AMBRA1, human, residues M1 to N204, directly fused to S853; AMBRA1, human, residues S853 to G1044; Same construct as m5, after TEV digestion; the gene was codon optimized; also called AMBRA1 WD40 domain; AMBRA1^WD40 WT; source: Expi293F, co-expressed, purified in complex (MBP beads, TEV digestion, Strep-tactin and/or Superdex 200); not shown: MBP, N-terminal, cleaved
As to B1, the binding result in test [3] is recorded as “binds”.

The record behind these values is paper PMC12101500, “Mechanism of D-type cyclin recognition by the AMBRA1 E3 ligase receptor” (Science Advances, 2025).
